Results published in article doi:10.1101/2022.05.06.490861.

Assays:
[1] = molecular target: Arp2/3 complex (bovine (purified from bovine brain)) (UniProt P61157)
[2] = molecular target: Arp2/3 complex (bovine (purified from bovine brain)) (UniProt P61157); remark: listed apart in the source

increase of the detachment rate of SPIN90-Arp2/3-nucleated filaments, 0-1 µM VCA [1] [fold] | acceleration of debranching of Arp2/3-mediated branches, 0-3 µM VCA [2] [fold] | Substance
< 16 | – | GST-N-WASP-VCA (from UniProt O00401 392-505) (domain or fragment)
– | < 83 | GST-WASH-VCA (from UniProt Q8VDD8 319-475) (domain or fragment)
